Reference: article PMC6456213, “LurR is a regulator of the central lactate oxidation pathway in sulfate-reducing Desulfovibrio species”

T1: LurR (Desulfovibrio vulgaris Hildenborough) (UniProt Q726T3)
T1 sequence: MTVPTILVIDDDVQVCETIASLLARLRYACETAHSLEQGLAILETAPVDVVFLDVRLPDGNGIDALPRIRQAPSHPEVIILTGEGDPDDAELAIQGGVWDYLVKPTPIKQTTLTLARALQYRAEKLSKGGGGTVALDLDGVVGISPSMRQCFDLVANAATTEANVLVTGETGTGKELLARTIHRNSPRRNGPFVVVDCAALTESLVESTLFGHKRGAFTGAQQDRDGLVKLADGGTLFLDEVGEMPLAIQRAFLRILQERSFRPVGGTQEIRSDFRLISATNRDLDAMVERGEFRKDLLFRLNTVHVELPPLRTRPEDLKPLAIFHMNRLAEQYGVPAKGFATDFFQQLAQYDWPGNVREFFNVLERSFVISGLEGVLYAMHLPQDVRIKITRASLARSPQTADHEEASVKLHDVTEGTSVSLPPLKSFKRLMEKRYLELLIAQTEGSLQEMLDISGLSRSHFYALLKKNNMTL

T2: PhoB (Desulfovibrio vulgaris Hildenborough) (UniProt Q72D47)
T2 sequence: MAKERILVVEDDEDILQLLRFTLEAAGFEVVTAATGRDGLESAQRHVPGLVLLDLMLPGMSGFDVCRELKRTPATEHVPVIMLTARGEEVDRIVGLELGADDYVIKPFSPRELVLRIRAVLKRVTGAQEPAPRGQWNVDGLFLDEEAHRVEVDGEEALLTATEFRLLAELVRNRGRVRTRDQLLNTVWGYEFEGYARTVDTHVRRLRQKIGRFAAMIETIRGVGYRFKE

T3: LurR (Desulfovibrio vulgaris Hildenborough, UniProt Q726T3 1-474)
T3 sequence: T1 sequence

B1: por LurR motif mut oligo (dsDNA)
DNA 1: GCCACACGAACTGCGCTTTTCAATCAACGCTACCAC
DNA 2: GTGGTAGCGTTGATTGAAAAGCGCAGTTCGTGTGGC

What was measured:
[1] = target: T1, LurR (Desulfovibrio vulgaris Hildenborough); assay: EMSA; details: 10 mM Tris-HCl pH 7.5, 50 mM KCl, 5 mM MgCl2, 1 ug/ml poly dI.dC, 100 fmol biotinylated DNA in 20 ul, room temperature, 20 min
[2] = target: T2, PhoB (Desulfovibrio vulgaris Hildenborough); assay: EMSA; details: 10 mM Tris-HCl pH 7.5, 50 mM KCl, 5 mM MgCl2, 1 ug/ml poly dI.dC, 100 fmol biotinylated DNA in 20 ul, room temperature, 20 min
LurR = target: T3, LurR; assay: EMSA; 0.5-1 pmol LurR; 10 mM Tris-HCl pH 7.5, 50 mM KCl, 5 mM MgCl2, 1 ug/ml poly dI.dC, 100 fmol biotinylated DNA in 20 ul, room temperature, 20 min; details: protein: recombinant; chain copies: 2; label: biotin on one strand

| Molecule | binding [1] | binding [2] | binding result (LurR) |
| --- | --- | --- | --- |
| GTCAGTAGGGTAACGCCACACGAAGTCCGCTTTTCAAGACACGCTACCACGCAACCCCATCCACGAGAAACGACAGCCGGAGGAAAAACCAAGGTTACAGCATAGTTACAGATAACACACCATTGGCACATTTCTTGTTAAACTTGCGGAGTTCGCGCTCTCCGCGCAACGGTCTCGGGCTCGCCCGCAAGCACCGTGAACTCCAGCCTCCGGCCCCCGGCGGCATGCCATTTTCACCACGCGCCCACCACAGGGCAGAAAAAGGAGATCGTAAATGGCCAAG (double strand) [por promoter substrate III (283 bp)] | binds | binds |  |
| CGAGAAACGACAGCCGGAGGAAAAACCAAGGTTACAGCATAGTTACAGATAACACACCATTGGCACATTTCTTGTTAAACTTGCGGAGTTCGCGCTCTCCGCGCAACGGTCTCGGGCTCGCCCGCAAGCACCGTGAACTCCAGCCTCCGGCCCCCGGCGGCATGCCATTTTCACCACGCGCCCACCACAGGGCAGAAAAAGGAGATCGTAAATGGCCAAG (double strand) [por promoter substrate IV (220 bp)] | no binding | binds |  |
| B1 |  |  | no binding |
